Experiments:
purified protein [1] = substrate: CC(=O)O; assay: purified protein; settings: acetate activation, ATP, CoA, MgCl2, 1 M KCl, pH 7.0, 42°C, pH 7.0
purified protein [2] = substrate: CC(=O)SCCNC(=O)CCNC(=O)[C@H](O)C(C)(C)COP(=O)(O)OP(=O)(O)OC[C@H]1O[C@@H](n2cnc3c(N)ncnc32)[C@H](O)[C@@H]1OP(=O)(O)O; assay: purified protein; assay type: biochemical, Haloferax volcanii; settings: acetate formation (reverse), AMP, PPi, MgCl2, 1 M KCl, pH 7.0, 42°C
purified protein [3] = substrate: CC(C)(COP(=O)(O)OP(=O)(O)OC[C@H]1O[C@@H](n2cnc3c(N)ncnc32)[C@H](O)[C@@H]1OP(=O)(O)O)[C@@H](O)C(=O)NCCC(=O)NCCS; assay: purified protein; assay type: biochemical, Haloferax volcanii; settings: acetate activation, ATP, CoA, MgCl2, 1 M KCl, pH 7.0, 42°C
purified protein [4] = substrate: Nc1ncnc2c1ncn2[C@@H]1O[C@H](COP(=O)(O)O)[C@@H](O)[C@H]1O; assay: purified protein; assay type: biochemical, Haloferax volcanii; settings: acetate formation (reverse), acetyl-CoA, PPi, MgCl2, 1 M KCl, pH 7.0, 42°C
purified protein [5] = substrate: Nc1ncnc2c1ncn2[C@@H]1O[C@H](COP(=O)(O)OP(=O)(O)OP(=O)(O)O)[C@@H](O)[C@H]1O; assay: purified protein; assay type: biochemical, Haloferax volcanii; settings: acetate activation, ATP, CoA, MgCl2, 1 M KCl, pH 7.0, 42°C
[6] = substrate: CC(=O)C(=O)O; assay: discontinuous PEP formation assay; assay type: biochemical, Haloferax volcanii; settings: ATP, MgCl2, DTE, 2 M KCl, pH 8.0, 42°C
[7] = substrate: Nc1ncnc2c1ncn2[C@@H]1O[C@H](COP(=O)(O)OP(=O)(O)OP(=O)(O)O)[C@@H](O)[C@H]1O; assay: discontinuous PEP formation assay; assay type: biochemical, Haloferax volcanii; settings: pyruvate, MgCl2, DTE, 2 M KCl, pH 8.0, 42°C
purified protein [8] = substrate: NC(=O)c1ccc[n+]([C@@H]2O[C@H](COP(=O)(O)OP(=O)(O)OC[C@H]3O[C@@H](n4cnc5c(N)ncnc54)[C@H](O)[C@@H]3O)[C@@H](O)[C@H]2O)c1; assay: purified protein; assay type: biochemical, Haloferax volcanii; settings: 10 mM malate, MnCl2, […] KCl, pH 7.0, 42°C, varied: cofactor
purified protein [9] = substrate: NC(=O)c1ccc[n+]([C@@H]2O[C@H](COP(=O)(O)OP(=O)(O)OC[C@H]3O[C@@H](n4cnc5c(N)ncnc54)[C@H](OP(=O)(O)O)[C@@H]3O)[C@@H](O)[C@H]2O)c1; assay: purified protein; assay type: biochemical, Haloferax volcanii; settings: 10 mM malate, MnCl2, […] KCl, pH 7.0, 42°C, varied: cofactor

B1: ACS7 (Haloferax volcanii DS2) (protein)
chain: MAQGDAELEARLAEQDEFEPTEEFVAQANVSDAGIYDEFEENWPDCWERAADLLDWDADYDEVLDDSNPPFYEWFTGGELNACYNCVDRHVENGDKNRVAIKWEGEHGETRTYTYQDLYREVNEFAAALRDLGVEEDDVVTLYMPMVPELPIAMLACARIGAPHNVVFAGFSAEALATRMNAADSRFLVTCDGYYRRGDPLDHLDKTNEGLDSVDHGVDATVVVDRLGDDGFDHDLKGNQHDWDDLLEAQSGERVAPVERDAEDMLFLMYTSGTTGQPKGVKHTTGGYLSYATWTSHAVLDIETEDTYWCSADIGWITGHSYIVYGPLALGSTTVMYEGTPDFPNRDRMWELVEKYAVDIFYTAPTAIRAFMKWGSKYPESRDLSSLRLLGTVGEPINPRAWKWYYEHIGNENCPVVDTWWQTETGGMMITTLPGVKNMKPGSAGPPLPGIDAQIVDTDGDEVEPGRAGYLTVNKPWPGMLRTLYDNDERYISEYWAEYSDTDSDDPDDWVYFPEDGAKVDEDGYITVLGRVDDVINVSGHRLGTMEIESAIVGVEGVAEAAVVGGNHEVKGEAVYAYVITEDGYEEGEDLRARIVEGVEDAIGPIARPEQVVFTPELPKTRSGKIMRRLLEDVANGAELGNTSTLRNPEIVGEIEAKVRAQSD
notes: full length, Ni-NTA purified (pTA963), homologous expression in H. volcanii H1209
Work on B1 yielded a Km (purified protein [1]) of 840 µM, a Vmax (purified protein [1]) of 26.1 µmol/min/mg and a Km (purified protein [2]) of 150 µM. The Vmax (purified protein [2]) was 6.2 µmol/min/mg, the Km (purified protein [3]) was 230 µM and the Km (purified protein [4]) was 90 µM. The Km (purified protein [5]) was 590 µM.

B2: PPS (Haloferax volcanii DS2) (protein)
chain: MAVVWLDDVRADDLDLVGGKGASLGELTGAGLPVPPGFVVTASTYRAFIEDAGIDDELFAAVEVDHEDSEALQAAHETAHDLIMETPMPDDVREEILDAYRSVGEGDAFVAVRSSATAEDLPDASFAGQQETFLNVTEEDLLDRVKECWASLFSERAIYYRNRKGFPHDKVDIAVVVQQMVDAEKSGVMFTRHPSTGKKEIIIEAAWGLGEAVVSGTVSPDNYVVSRETGEVETATIADKKTMCVRDEESGETVMRDVPNGRRHERVLTDDEVSRLLELGELVEDHYEKPQDVEWAVYDGEVYMLQSRPITTIAEGDDGEETESEGDSSGSSRATATGDDVLIRGLGASPGIASGRARIVTKLDHLDQVAEGDIIVTEMTMPDMVPAMKRAAGIVTDEGGMTSHAAIVSRELGVPAVVGTGDGTKTLEDGEVVTIDGDKGTVREGEEPEEKQRQPVEEARPKTPVKPMTATEVKVNVSIPEAAERAAATGADGVGLLRIEHMVLTLGKTPGRFIEQNGERAYVDEIVSGVREAAEEFYPRPVRVRTLDAPTDEFRQLEGGENEPREHNPMLGYRGIRRGLDNPSVFRLELQAFRRLFDMGYDNLEVMFPLVNDAEDVLRAKEHMREAGIDPEKREWGVMIETPAAALCIEELADAGIDFASFGTNDLTQYTLAVDRNNEHVADIYDELHPAVLKLIGDTIETCREVGVKTSICGQAGSKPKMVQFLVDKGVSSISANIDAVRDVQHEVKRVEQRLLLDSVR
notes: full length, Ni-NTA purified, homologous expression in H. volcanii
B2 was tested, and the Km [6] was 270 µM and the Km [7] was 360 µM.

B3: Mae2 (Haloferax volcanii DS2) (protein)
chain: MTLGDDARDYHRRPPAGKVEIATTKPTNTQRDLSLAYSPGVAAPCRDIAEDENAAYEYTAKGNLVGVVSNGSAVLGLGDIGAQASKPVMEGKGVLFKRFADIDVFDVEFDHDDPQAFVESVAAMEPTFGGINLEDIRAPECFEIEESLRERMDIPVFHDDQHGTAIISGAALLNAADIADKELSSLNVTFSGAGAAATATARFYVSLGIPHENITLCDIDGVLSESRAEAGELDEYAEPFARGVDDGDLEDAMEGADVLVGLSVGGIVSQETVRSMADDPIIFAMANPEPEIAYEDAKEARDDTVIMATGRSDYPNQVNNVLGFPFIFRGALDVRATEINEEMKRAAAEALANLARQDVPDAVVKAYGDGPLQFGPDYLIPKPLDQRVLYEVTPAVAEAAMKSGAARRERDLDDYREELEARLGKSREMMRVVLNKAASNPKRVVLAEGEDEKMIRAASQLVEEGIAEPILVGRTKEILRTAEDLGLDFDPTIADPESGEWNHYVDHLYERRQRKGLTRTEAAELVRGDSNYFASVMVEVGDADAMLTGLTHHYPSALRPPLQIIGTADDADYAAGVYMLTFRNRVIFCADATVNLDPDENVLAEVTKHTAELARRFNVEPRAALLSYSDFGSVTNEGTRKPRNAVEQLHADPDVDFPVDGEMQADTALVEEMLTDTYDFAELDDPANVLVFPNLEAGNIGYKLLQRLGGAEAIGPMLVGMDKPVHVLQRGDEVKDIVNLAGVAVVDAQSE
notes: full length with C-terminal PTA domain, Ni-NTA purified, homologous expression in H. volcanii; 530 kDa, subunit 81 kDa
B3 was tested, and the Km (purified protein [8]) was 150 µM and the Km (purified protein [9]) was 100 µM.

Reference: article PMC7746861, “Acetate Metabolism in Archaea: Characterization of an Acetate Transporter and of Enzymes Involved in Acetate Activation and Gluconeogenesis in Haloferax volcanii” (Frontiers in Microbiology, 2020)
